# Laboratory results: patent US20170107294A1, “ANTI-CD14 ANTIBODIES AND USES THEREOF” (Nordlandssykehuset HF, priority 2014, published 2017)
# T1: porcine CD14 (Sus scrofa, UniProt F6PST4)
# T1 sequence (F6PST4 21-373): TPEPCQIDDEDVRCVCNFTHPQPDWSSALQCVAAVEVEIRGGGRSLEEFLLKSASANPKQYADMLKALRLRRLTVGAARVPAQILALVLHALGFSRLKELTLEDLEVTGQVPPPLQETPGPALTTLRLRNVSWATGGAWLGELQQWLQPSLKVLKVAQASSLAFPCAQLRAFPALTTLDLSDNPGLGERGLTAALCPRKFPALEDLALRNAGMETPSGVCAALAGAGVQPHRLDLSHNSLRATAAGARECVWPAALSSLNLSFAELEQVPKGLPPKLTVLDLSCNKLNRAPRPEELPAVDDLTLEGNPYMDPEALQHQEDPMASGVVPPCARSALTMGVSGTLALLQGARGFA
# T2: human CD14 (Homo sapiens, UniProt P08571)
# T2 construct: endogenous in cells; host or cells: monocytes in fresh human whole blood (lepirudin)
# T2 sequence (P08571 20-345): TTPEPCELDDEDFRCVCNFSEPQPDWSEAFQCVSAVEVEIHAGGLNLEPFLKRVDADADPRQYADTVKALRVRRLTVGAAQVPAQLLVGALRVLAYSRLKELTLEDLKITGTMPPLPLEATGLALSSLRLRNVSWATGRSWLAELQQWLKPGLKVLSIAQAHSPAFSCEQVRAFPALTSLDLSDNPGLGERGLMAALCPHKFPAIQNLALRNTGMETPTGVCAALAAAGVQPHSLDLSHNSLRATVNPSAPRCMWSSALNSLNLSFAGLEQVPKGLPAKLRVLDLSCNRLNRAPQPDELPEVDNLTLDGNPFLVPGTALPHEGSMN
# B1: OmCI: endotoxin-free recombinant bacterial OmCI (coversin), a 16.8-kDa protein, complement C5 inhibitor (protein, UniProt Q5YD59 19-168, looked up)
# Complement inhibitor: DSESDCTGSEPVDAFQAFSEGKEAYVLVRSTDPKARDCLKGEPAGEKQDNTLPVMMTFKNGTDWASTDWTFTLDGAKVTATLGNLTQNREVVYDSQSHHCHVDKVEKEVPDYEMWMLDAGGLEVEVECCRQKLEELASGRNQMYPHLKDC
# B2: rMil2: recombinant anti-porcine CD14 mouse/human chimeric IgG2/4 Ab; VL SEQ ID NO:3, VH SEQ ID NO:4 (antibody, V domains shown)
# VH: MGWSCIILFLVATATGVHSQVRLQQPGAELVRPGASVKLSCKASGYTFTTYWMNWVKQRPEDGLEWIGRIDPYDSETHYNQNFKDKAILTVDKSSSTAYMQLSSLTYEDSAVYYCTRKEGRQWGAYFDYWGQGTTLTVSSA
# VL: MGWSCIILFLVATATGVHSDIVMTQSQKFMSTSVGDRVSVTCKASQYVGTNVAWYQQKPGQSPKALIQSASYRCSGVPDRFTGSGSGTDFTLTISNVQSEDLADYFCQQYNTYVTFGGGTKLELKR
# modifications: human IgG2/4 constant regions
# B3: r18D11: recombinant anti-human CD14 mouse/human chimeric IgG2/4 Ab; VL SEQ ID NO:1, VH SEQ ID NO:2 (antibody, V domains shown)
# VH: MGWSCIILFLVATATGVHSEVQLVESGGGLMQPKGSLKLSCAASGFTFKTYALNWVRQAPGTGLEWVARIRSKSNNYTTYYADSVKDRFTISRDDSQNMLYLQMNNLKTEDTAMYYCVRPQSGTSFAYWGQGTLVTVSAA
# VL: MGWSCIILFLVATATGVHSNIVLTQSPASLAVSLGQRATISCRASESVDSYGNSFMHWYQQKPGQPPKLLIYLASNLESGVPARFSGSGSRTDFTLTIDPVEADDVATYYCQQNNGDPYTFGGGTKLEIIR
# modifications: human IgG2/4 constant regions
# Assays:
# porcine whole blood [1] = experiment: rMil2 combined with C5 inhibitor OmCI: cytokine production in porcine whole blood ex vivo; format: cell-based; conditions: E. coli-incubated porcine whole blood
# Method: (§1) The whole blood model has been described in detail previously (36). Fresh human venous or porcine arterial blood was drawn directly into tubes containing the anticoagulant lepirudin (Pharmion) at a final concentration of 50 mg/ml. In 1.8-ml Cryo Tube vials (Nunc, Roskilde, Denmark), the blood was preincubated with up to 20 mg/ml anti-human CD14 (r18D11 or 18D11), or 50 mg/ml anti-porcine CD14 (rMil2 or Mil2) at 37° C. for 10 min prior to an additional 2-h incubation in the presence of 100 ng/ml ultrapure LPS from Escherichia coli 0111:B4 (InvivoGen, San Diego, Calif.) for human blood or 1 3 105/ml heat-inactivated E. coli (strain LE392, ATCC33572) for porcine blood. As negative controls, PBS with MgCl2 and CaCl2 (Sigma-Aldrich) and isotype controls were used. Adverse effects were tested using nonactivated whole blood samples. After the addition of 10 mM (human) or 20 mM (porcine) EDTA, plasma was gained by 15 min centrifugation at 3220 3 g and 4° C. Levels of TNF, IL-6, and IL-1b in human plasma were determined using Bioplex technology (Bio-Rad Laboratories AB). Levels of TNF, IL-1b, and IL-8 in porcine plasma were determined using ELISA (Quantikine, R&D Systems, Minneapolis, Minn.). Platelet count was quantified by impedance using a CELL-DYN Sapphire hematology analyzer (Abbott Laboratories, Abbott Park, Ill.).
# Whole blood was incubated with 1 3 106 E. coli per milliliter for 2 h at 37° C. in the absence or presence of inhibitors and controls. TNF, IL-1b, and IL-8 blood was analyzed as described above.
# complement activation = conditions: pigs; cited from earlier work
# porcine whole blood [2] = experiment: Whole blood ex vivo model of inflammation, E. coli-induced cytokine release in porcine blood; format: cell-based; conditions: heat-inactivated E. coli
# Method: as §1
# porcine whole blood [3] = experiment: Adverse (IgG-Fc mediated) effects in nonactivated porcine whole blood; format: cell-based; conditions: absence of inflammatory stimuli
# Method: as §1
# [4] = design: species or system Norwegian domestic piglets (Sus scrofa domesticus); conditions: in vivo, iv, 0.32 mg/kg
# Method: (§2) In vivo application of anti-porcine CD14 Abs Norwegian domestic piglets (Sus scrofa domesticus, outbred stock) with a weight of 2.2 kg were isolated at the day of intervention. Anesthesia was induced with 5% sevoflurane in a mixture of air and oxygen until sleep. After establishment of an i.v. line, the piglets received fentanyl (15-20 mg/kg) were tracheotomized in the supine position, and a microcuffed endotracheal tube from Kimberly-Clark (Roswell, GA) with inner diameter of 4 mm was inserted. Maintenance anesthesia was provided with an infusion of fentanyl (50 mg/kg/h, and isoflurane 1-2% in oxygen-enriched air administered from a Leon plus ventilator from Heinen and Loevenstein (Bad Ems, Germany). An artery line was inserted in the right or left carotid artery for blood sampling during the experiments and for continuous measurement of mean artery pressure. The piglets were monitored with electrocardiography and pulse oximetry. Ventilator settings were adjusted to maintain 7.40 pH and oxygen saturation above 96%. Hemodynamic parameters were collected using ICUpilot software, CMA Microdialysis (Stockholm, Sweden) every 30 s. To compensate for hydration needs, the animals received a background infusion of isotonic sodium glucose solution, Salidex (Braun Medical A/S, Vestskogen, Norway) at 10 ml/kg/h. To compare the effect of the Mil2 and the rMil2 on healthy piglets, increasing amounts of a stock solution of 1 mg/ml rMil2 or Mil2 (batch 1106) were injected i.v. into two piglets at indicated times to a maximum dose of 5.36 mg/kg, and arterial blood samples were collected, in tubes containing the anticoagulants EDTA or citrate. To investigate the biological effect of rMIL2 on the inflammatory response, two piglets underwent the E. coli sepsis regimen as described previously (17). One control piglet was gives saline, and one piglet was given a bolus dose of 5 mg/kg rMil2 before infusion of the bacteria.
# [5] = system: E. coli-induced cytokine response; experiment: In vivo E. coli sepsis regimen in piglets, cytokine response; design: species or system Norwegian domestic piglets (Sus scrofa domesticus); conditions: bolus 5 mg/kg before i.v. E. coli; vs saline control piglet
# Method: as §2
# porcine CD14 [6] = molecular target: T1, porcine CD14; experiment: Leukocyte CD14 expression before and after rMil2 bolus in a piglet, flow cytometry; format: in vivo, Norwegian domestic piglets (Sus scrofa domesticus); design: endogenous in cells; conditions: after bolus dose of 5 mg/kg
# Method: as §2, with “To compare the effect of the Mil2 and the rMil2 on healthy piglets, increasing amounts of a stock solution of 1 mg/ml rMil2 or Mil2 (batch 1106) were injected i.v. into two piglets at indicated times to a maximum dose of 5.36 mg/kg, and arterial blood samples were collected, in tubes containing the anticoagulants EDTA or citrate. To investigate the biological effect of rMIL2 on the inflammatory response, two piglets underwent the E. coli sepsis regimen as described previously (17). One control piglet was gives saline, and one piglet was given a bolus dose of 5 mg/kg rMil2 before infusion of the bacteria.” left out
# porcine CD14 [7] = molecular target: T1, porcine CD14; experiment: CD14 binding in flow cytometry, porcine whole blood (competition with FITC-conjugated Mil2); design: human monocyte and porcine granulocyte populations were selected based on the forward scatter-side scatter dot plot; endogenous in cells; host or cells: granulocytes in fresh porcine whole blood (EDTA); binding sites blocked (competition with FITC-conjugated Mil2 in binding to CD14) / direct binding to porcine granulocytes: dose or concentration left out as unconfirmed
# Method: (§3) Fresh human or porcine whole blood was drawn into tubes containing the anticoagulants lepirudin (Refludan; Pharmion, Copenhagen, Denmark) or EDTA, respectively. Blood samples were preincubated for 10 min with Ab, #20 mg/ml anti-human CD14 Abs r18D11, 18D11 F(ab)92 (batch 2068, lot 1383), or isotype controls raNIP and mIgG1 F(ab)92 (lot 1501), or […] anti-porcine CD14 Abs rMil2, Mil2 (lot 1106), or the isotype controls 4770 RECOMBINANT ANTI-CD14 Abs Downloaded from University of Oslo, Library of Medicine and Health Science on Jan. 24, 2014 for IgG2/4 and mIgG2b, eculizumab (Soliris) and mIgG2b (lot 1631), respectively. Endotoxin-free Dulbecco phosphate buffered saline, PBS (Sigma-Aldrich), was used for diluting the Abs. Subsequently, blood samples were incubated for another 15 min in the presence of detection Ab, 10 mg/ml 18D11 (batch 719, lot 3110) or 150 mg/ml FITC-conjugated Mil2 (batch 1107). Their binding was detected either by using a secondary PEconjugated anti-mouse IgG or through direct FITC fluorescence. Erythrocytes were lysed using FACS Lysing solution (BD Biosciences, Franklin Lakes, N.J.; human blood) or a solution of 0.16 M ammonium chloride, 10 mM sodium bicarbonate, 0.12 mM EDTA (Tritiplex III) and 0.04% (v/v) paraformaldehyde (porcine blood). In subsequent flow cytometry analyses, human monocyte and porcine granulocyte populations were selected based on the forward scatter-side scatter dot plot, and CD14 binding was recorded as mean or median fluorescence intensity, respectively. In contrast to humans, porcine CD14 is constitutively expressed on mature granulocytes (32, 33). Fluorescence intensities in the presence of the fluorescently labeled Abs only were set to 100%. Flow cytometry analyses on human samples were performed using an LSRII and FACSDiva software version 5.0.3; porcine samples were analyzed on a FACSCalibur using Cell Quest Pro version 5.2.1 for data acquisition (all from BD Biosciences).
# human CD14 = molecular target: T2, human CD14; experiment: CD14 binding in flow cytometry, human whole blood (displacement of 18D11 from monocytes)
# Method: as §3, with “Endotoxin-free Dulbecco phosphate buffered saline, PBS (Sigma-Aldrich), was used for diluting the Abs. Subsequently, blood samples were incubated for another 15 min in the presence of detection Ab, 10 mg/ml 18D11 (batch 719, lot 3110) or 150 mg/ml FITC-conjugated Mil2 (batch 1107).” left out, “Erythrocytes were lysed using FACS Lysing solution (BD Biosciences, Franklin Lakes, N.J.; human blood) or a solution of 0.16 M ammonium chloride, 10 mM sodium bicarbonate, 0.12 mM EDTA (Tritiplex III) and 0.04% (v/v) paraformaldehyde (porcine blood).” left out, “In contrast to humans, porcine CD14 is constitutively expressed on mature granulocytes (32, 33).” left out
# human whole blood [8] = experiment: Whole blood ex vivo model of inflammation, LPS-induced cytokine release in human blood; format: cell-based; design: Ab concentration at which maximum inhibitory effects were reached: unit not given here
# Method: as §1
# human whole blood [9] = experiment: Unwanted effects (complement activation, oxidative burst) in nonstimulated human whole blood; format: cell-based; conditions: 10 mg/ml Ab
# Method: as §1
molecule,measurement,setting,value
B1,IL-1b release (effect in words),porcine whole blood [1],not significantly reduced
same,IL-8 release (effect in words),porcine whole blood [1],significantly reduced to almost baseline
same,TNF release (effect in words),porcine whole blood [1],significantly reduced
same,inhibition of complement activation,complement activation,inhibit complement activation effectively
B2,block of IL-1b release compared with Mil2,porcine whole blood [2],as effective as Mil2
same,inhibition of TNF release compared with Mil2,porcine whole blood [2],slightly less inhibitory
same,spontaneous IL-8 release,porcine whole blood [3]; 50 mg/ml,Neither IL-8 secretion nor platelet drop nor aggregation was observed
same,platelet counts / platelet aggregation,porcine whole blood [3]; up to 71.4 mg/ml,Neither IL-8 secretion nor platelet drop nor aggregation was observed
same,IL-1b release (effect in words),porcine whole blood [1],significantly reduced the production
same,IL-8 release (effect in words),porcine whole blood [1],"seemed to be substantial, but did not reach statistical significance"
same,TNF release (effect in words),porcine whole blood [1],significantly reduced
same,heart rate (effect in words),[4],"but not rMil2, caused an increase in heart rate"
same,IL-1b reduction (area under the curve),[5],89%
same,IL-6 reduction (area under the curve),[5],88%
same,IL-8 reduction (area under the curve),[5],100%
same,TNF reduction (area under the curve),[5],71%
same,reduction in leukocyte CD14 expression (saturation of CD14),porcine CD14 [6],94%
same,binding sites blocked (competition with FITC-conjugated Mil2 in binding to CD14),"porcine CD14 [7]; Ab, granulocytes in porcine whole blood",~50%
same,direct binding to porcine granulocytes,porcine CD14 [7]; not shown,saturated
same,displacement of original clone Mil2 from CD14+ granulocytes,porcine CD14 [7]; porcine whole blood,effectively bound to and displaced the original clone
B3,18D11 displaced from its binding sites on human monocytes,human CD14; 10 mg/ml r18D11 vs 10 mg/ml 18D11 (equimolar),50%
same,binding to CD14 on human monocytes (competition with 18D11),human CD14; human whole blood,dose-dependently outcompeted
same,"E. coli ultrapure LPS-induced release of IL-1b, TNF and IL-6","human whole blood [8]; 100 ng/ml LPS, dose-dependent",inhibited
same,Ab concentration at which maximum inhibitory effects were reached,"human whole blood [8]; LPS-induced IL-1b, TNF, IL-6 release",10
same,monocyte oxidative burst,human whole blood [9]; flow cytometry,did not induce significant oxidative burst
same,complement activation,human whole blood [9]; not shown,same low level of complement activation
